± gives the uncertainty stated by the source.
B1: Ras GTPase-activating protein 1, residues 281 to 341; numbered along this chain, P20936 (parent)
chain: RRRVRAILPYTKVPDTDEISFLKGDMFIVHNELEDGWMWVTNLRTDEQGLIVEDLVEEVGR

Variants of: B1
Test: abundance fitness (aPCA) (normalised: wild type 0, dead -1); higher = more abundant; growth selection in yeast, the domain comes from the species named
Settings: Homo sapiens

Row | Variant | abundance fitness
1 | RRRVRAILPYTKVPDTDEISFLKGDMDIVHNELEDGWMWVTNLRTDEQGLIVEDLVEEVGR [F27D] | -0.748 ± 0.051
2 | RRRVRAILPYTKVPDTDEISFLKGDKFIVHNELEDGWMWVTNLRTDEQGLIVEDLVEEVGR [M26K] | -0.333 ± 0.083
3 | RRRVRAILPYTKVPDTDEISFLKGDQFIVHNELEDGWMWVTNLRTDEQGLIVEDLVEEVGR [M26Q] | -0.056 ± 0.062
4 | RRRVRAILPYTKVPDTDEISFLKGDFFIVHNELEDGWMWVTNLRTDEQGLIVEDLVEEVGR [M26F] | -0.042 ± 0.029
5 | RRRVRAILPYTKVPDTDEISFLKGDCFIVHNELEDGWMWVTNLRTDEQGLIVEDLVEEVGR [M26C] | -0.042 ± 0.027
6 | RRRVRAILPYTKVPDTDEISFLKGDYFIVHNELEDGWMWVTNLRTDEQGLIVEDLVEEVGR [M26Y] | -0.028 ± 0.029
7 | RRRVRAILPYTKVPDTDEISFLKGDEFIVHNELEDGWMWVTNLRTDEQGLIVEDLVEEVGR [M26E] | 0.117 ± 0.057
8 | RRRVRAILPYTKVPDTDEISFLKGDPFIVHNELEDGWMWVTNLRTDEQGLIVEDLVEEVGR [M26P] | -0.325 ± 0.047
9 | RRRVRAILPYTKVPDTDEISFLKGDAFIVHNELEDGWMWVTNLRTDEQGLIVEDLVEEVGR [M26A] | -0.177 ± 0.033
10 | RRRVRAILPYTKVPDTDEISFLKGDRFIVHNELEDGWMWVTNLRTDEQGLIVEDLVEEVGR [M26R] | -0.186 ± 0.032
11 | RRRVRAILPYTKVPDTDEISFLKGDTFIVHNELEDGWMWVTNLRTDEQGLIVEDLVEEVGR [M26T] | -0.03 ± 0.038
12 | RRRVRAILPYTKVPDTDEISFLKGDDFIVHNELEDGWMWVTNLRTDEQGLIVEDLVEEVGR [M26D] | 0.012 ± 0.03
13 | RRRVRAILPYTKVPDTDEISFLKGDIFIVHNELEDGWMWVTNLRTDEQGLIVEDLVEEVGR [M26I] | -0.039 ± 0.031
14 | RRRVRAILPYTKVPDTDEISFLKGDLFIVHNELEDGWMWVTNLRTDEQGLIVEDLVEEVGR [M26L] | -0.026 ± 0.03
15 | RRRVRAILPYTKVPDTDEISFLKGDHFIVHNELEDGWMWVTNLRTDEQGLIVEDLVEEVGR [M26H] | -0.061 ± 0.034
16 | RRRVRAILPYTKVPDTDEISFLKGDWFIVHNELEDGWMWVTNLRTDEQGLIVEDLVEEVGR [M26W] | -0.104 ± 0.048
17 | RRRVRAILPYTKVPDTDEISFLKGDGFIVHNELEDGWMWVTNLRTDEQGLIVEDLVEEVGR [M26G] | -0.416 ± 0.03
18 | RRRVRAILPYTKVPDTDEISFLKGDNFIVHNELEDGWMWVTNLRTDEQGLIVEDLVEEVGR [M26N] | -0.029 ± 0.031
19 | RRRVRAILPYTKVPDTDEISFLKGDSFIVHNELEDGWMWVTNLRTDEQGLIVEDLVEEVGR [M26S] | -0.125 ± 0.028
20 | RRRVRAILPYTKVPDTDEISFLKGLMFIVHNELEDGWMWVTNLRTDEQGLIVEDLVEEVGR [D25L] | -0.852 ± 0.062
21 | RRRVRAILPYTKVPDTDEISFLKGVMFIVHNELEDGWMWVTNLRTDEQGLIVEDLVEEVGR [D25V] | -0.904 ± 0.046
22 | RRRVRAILPYTKVPDTDEISFLKGPMFIVHNELEDGWMWVTNLRTDEQGLIVEDLVEEVGR [D25P] | -0.664 ± 0.093

Row | Variant | abundance fitness
23 | RRRVRAILPYTKVPDTDEISFLKGYMFIVHNELEDGWMWVTNLRTDEQGLIVEDLVEEVGR [D25Y] | -0.948 ± 0.051
24 | RRRVRAILPYTKVPDTDEISFLKGSMFIVHNELEDGWMWVTNLRTDEQGLIVEDLVEEVGR [D25S] | -0.874 ± 0.042
25 | RRRVRAILPYTKVPDTDEISFLKGWMFIVHNELEDGWMWVTNLRTDEQGLIVEDLVEEVGR [D25W] | -1.11 ± 0.17
26 | RRRVRAILPYTKVPDTDEISFLKGQMFIVHNELEDGWMWVTNLRTDEQGLIVEDLVEEVGR [D25Q] | -0.768 ± 0.22
27 | RRRVRAILPYTKVPDTDEISFLKGRMFIVHNELEDGWMWVTNLRTDEQGLIVEDLVEEVGR [D25R] | -0.997 ± 0.062
28 | RRRVRAILPYTKVPDTDEISFLKGDMFWVHNELEDGWMWVTNLRTDEQGLIVEDLVEEVGR [I28W] | -0.136 ± 0.03
29 | RRRVRAILPYTKVPDTDEISFLKGDMFKVHNELEDGWMWVTNLRTDEQGLIVEDLVEEVGR [I28K] | -0.07 ± 0.033
30 | RRRVRAILPYTKVPDTDEISFLKGDMFPVHNELEDGWMWVTNLRTDEQGLIVEDLVEEVGR [I28P] | -0.85 ± 0.04
31 | RRRVRAILPYTKVPDTDEISFLKGDMFVVHNELEDGWMWVTNLRTDEQGLIVEDLVEEVGR [I28V] | -0.016 ± 0.021
32 | RRRVRAILPYTKVPDTDEISFLKGDMFLVHNELEDGWMWVTNLRTDEQGLIVEDLVEEVGR [I28L] | -0.038 ± 0.022
33 | RRRVRAILPYTKVPDTDEISFLKGDMFQVHNELEDGWMWVTNLRTDEQGLIVEDLVEEVGR [I28Q] | -0.047 ± 0.042
34 | RRRVRAILPYTKVPDTDEISFLKGDMFNVHNELEDGWMWVTNLRTDEQGLIVEDLVEEVGR [I28N] | -0.102 ± 0.022
35 | RRRVRAILPYTKVPDTDEISFLKGDMFEVHNELEDGWMWVTNLRTDEQGLIVEDLVEEVGR [I28E] | 0.098 ± 0.034
36 | RRRVRAILPYTKVPDTDEISFLKGDMFRVHNELEDGWMWVTNLRTDEQGLIVEDLVEEVGR [I28R] | -0.206 ± 0.021
37 | RRRVRAILPYTKVPDTDEISFLKGDMFHVHNELEDGWMWVTNLRTDEQGLIVEDLVEEVGR [I28H] | -0.069 ± 0.022
38 | RRRVRAILPYTKVPDTDEISFLKGDMFCVHNELEDGWMWVTNLRTDEQGLIVEDLVEEVGR [I28C] | -0.07 ± 0.021
39 | RRRVRAILPYTKVPDTDEISFLKGDMFDVHNELEDGWMWVTNLRTDEQGLIVEDLVEEVGR [I28D] | 0.029 ± 0.022
40 | RRRVRAILPYTKVPDTDEISFLKGDMFGVHNELEDGWMWVTNLRTDEQGLIVEDLVEEVGR [I28G] | -0.604 ± 0.022
41 | RRRVRAILPYTKVPDTDEISFLKGDMFMVHNELEDGWMWVTNLRTDEQGLIVEDLVEEVGR [I28M] | -0.029 ± 0.031
42 | RRRVRAILPYTKVPDTDEISFLKGDMFTVHNELEDGWMWVTNLRTDEQGLIVEDLVEEVGR [I28T] | -0.011 ± 0.023
43 | RRRVRAILPYTKVPDTDEISFLKGDMFYVHNELEDGWMWVTNLRTDEQGLIVEDLVEEVGR [I28Y] | -0.079 ± 0.022
44 | RRRVRAILPYTKVPDTDEISFLKGDMFAVHNELEDGWMWVTNLRTDEQGLIVEDLVEEVGR [I28A] | -0.068 ± 0.022

Reference: the Human Domainome abundance scans (Beltran et al. 2025)
